Test results reported in article PMC10917151 (Nature chemical biology, 2023).
Values belong to the compound of their own block, whether it stands above or below them.

How the values were obtained:
VHL-LgBiT (human) = VHL-LgBiT (human) (UniProt P40337)
[1] = target: endogenous BRD4 in HEK293T cells (Homo sapiens, UniProt O60885); assay: Western blot of endogenous BRD4 degradation; format: cell-based; settings: 18 h

VHL-LgBiT (human), sequence (P40337 whole entry): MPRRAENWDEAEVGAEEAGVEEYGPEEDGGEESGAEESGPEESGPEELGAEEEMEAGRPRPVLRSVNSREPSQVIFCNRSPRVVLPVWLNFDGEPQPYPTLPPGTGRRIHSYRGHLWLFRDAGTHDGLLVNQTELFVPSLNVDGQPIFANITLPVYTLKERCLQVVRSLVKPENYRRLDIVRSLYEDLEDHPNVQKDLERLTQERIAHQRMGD

HiBiT assay: DC50 of degradation of HiBiT-tagged BRD4^BD1 in HEK293T with CIP-2 (VHL-LgBiT (human)): 17 nM
HiBiT assay: Dmax of degradation of HiBiT-tagged BRD4^BD1 in HEK293T with CIP-2 (VHL-LgBiT (human)): 93%
Compound: SmBiT-BRD4^BD1 (domain or fragment)

endogenous BRD4 degradation at 1 μM (Western blot) ([1]; 1 μM): complete BRD4 removal
Compound: Cc1ncsc1-c1ccc(CNC(=O)[C@@H]2C[C@@H](O)CN2C(=O)[C@@H](NC(=O)COCCOCCOCCNC(=O)C[C@@H]2N=C(c3ccc(Cl)cc3)c3c(sc(C)c3C)-n3c(C)nnc32)C(C)(C)C)cc1 [MZ1]

endogenous BRD4 degradation (Western blot) [1]: no degradation
Compound: CC(=O)N[C@H](C(=O)N1C[C@H](O)C[C@H]1C(=O)NCc1ccc(-c2scnc2C)cc1)C(C)(C)C [VH032]
